Target: recombinant soluble homotrimeric HA of A/common magpie/Hong Kong/5052/07 (H5N1) (Influenza A virus A/common magpie/Hong Kong/5052/2007 (H5N1))
Test: HA microarray, control mAb
Conditions: remark: other sources report otherwise

B1: TCN-504 (3251_K17) (antibody, V domains shown)
VH: QVQLQESGPGLVKPSETLSLTCAVSGVSISNIDFYWGWIRQPPGKGLEWIGNIYYTGITFYNPSLSSRVAISIDTSKNQFSLTLTSVTAADTAMYYCARHYGDSEAINDAFDIWGQGTMLTVSS
VL: EIVMTQSPATLSVSPGERATLSCRASQSVGNSLAWYQQRPGQAPRLLIYGASTRATGIPPRFSGSGSGTEFTLTISSLQTEDFAVYYCQQYINWRPLSFGGGTKVEIK
- Trimeric HA Binding RLU: 17000 RLU
